From patent publication US20140234868A1, “USE FOR GLYCOLIPOPROTEIN GINTONIN, ISOLATED AND IDENTIFIED FROM GINSENG, AS A NATURAL MEDICAL-PLANT DERIVED LIGAND” (KONKUK UNIVERSITY INDUSTRIAL COOPERATION CORP., priority 2011, published 2014)

Legend:
[1] = molecular target: T1, LPA6 receptor (Homo sapiens, UniProt P43657); experiment: Intracellular free Ca2+ (Fura-2AM) in LPA6-expressing B103 cells; format: cell-based
T1 construct: host or cells: B103 rat neuroblastoma cells
T1 sequence (P43657 1-344): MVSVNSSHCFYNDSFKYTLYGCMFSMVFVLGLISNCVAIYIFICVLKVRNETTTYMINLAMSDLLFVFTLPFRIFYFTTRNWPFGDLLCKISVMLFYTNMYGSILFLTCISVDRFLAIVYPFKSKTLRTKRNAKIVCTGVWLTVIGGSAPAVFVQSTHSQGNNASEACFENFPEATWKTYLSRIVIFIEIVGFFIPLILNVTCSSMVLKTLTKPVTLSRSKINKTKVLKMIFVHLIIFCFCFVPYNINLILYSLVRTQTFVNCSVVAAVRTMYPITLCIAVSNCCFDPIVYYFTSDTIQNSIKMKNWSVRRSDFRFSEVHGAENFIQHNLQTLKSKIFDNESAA
Excerpt: (§1) LPA family receptors are endogenous to cells of most organs. B103 rat neuroblastoma cells, known as LPA receptor-null cells (Valentine et al., Biochim Biophys Acta 1780. 597-605) were transiently transfected with a plasmid (vector) carrying one of genes coding for LPA1(edg-2), LPA2(edg-4), LPA3(edg-7), LPA4, LPA5 and LPA6 receptors or a plasmid carrying none of them (empty vector). Two or three days after transfection, the cells are suspended, and made permeable. Then, the permeable cells are treated with Fura-2AM, a fluorescent dye binding to calcium, and then with gintonin, followed by spectrofluorephotometry to examine whether gintonin induces an increase in intracellular free Ca^2+ level. […]

[2] = test system: HUVECs; experiment: Scratch wound healing in HUVEC monolayers; format: cell-based, human; conditions: gintonin 30 μg/ml, 20 hrs
Description: In this Example, an examination was made of the effect of gintonin on wound healing. For use in this examination, HUVECs were cultured in an M199 medium supplemented with heat-inactivated 20% FBS, […] basic fibroblast growth factor, 5 units/ml heparin, and streptomycin and penicillin in a 5% […] incubator.
HUVECs (2.5×10^5/well) were seeded to 24-well plates, and incubated for 24 hrs, and then for an additional 6 hrs in M199 supplemented with 1% FBS. Single wounds were made in the confluent monolayers by dragging a sterile 200-μl pipette tip across the monolayer to create a cell-free path. Floating cells were washed off twice with M199 supplemented with 1% FBS. The adherent cells were incubated with gintonin (30 μg/ml). Before and after treatment with gintonin, HUVECs in each well were observed and photographed (100×) using an inverted fluorescence microscope (AxioVert200; Carl Zeiss, Germany). Morphological comparison with non-treated cells was made.
In the assay for wound healing of gintonin, uncovered wound areas were measured using AxioVision 4 (Carl Zeiss, Germany) (FIG. 26A), and the time process of covering the scratch wound areas was monitored in the presence or absence of gintonin (FIG. 25B). In addition, uncovered scratch areas of gintonin-treated groups were compared with that of the control and expressed as % of that of the control (FIGS. 26C and D).

[3] = test system: mouse EAT (Ehrlich Ascites Tumor); conditions: mouse EAT cells; PLC-coupled pathway; cited from earlier work
[4] = molecular target: LPA4 receptor (Homo sapiens, UniProt Q99677); experiment: Intracellular free Ca2+ (Fura-2AM) in LPA4-expressing B103 cells; format: cell-based; design: host or cells: B103 rat neuroblastoma cells; conditions: gintonin
LPA4 receptor, sequence (Q99677 whole entry): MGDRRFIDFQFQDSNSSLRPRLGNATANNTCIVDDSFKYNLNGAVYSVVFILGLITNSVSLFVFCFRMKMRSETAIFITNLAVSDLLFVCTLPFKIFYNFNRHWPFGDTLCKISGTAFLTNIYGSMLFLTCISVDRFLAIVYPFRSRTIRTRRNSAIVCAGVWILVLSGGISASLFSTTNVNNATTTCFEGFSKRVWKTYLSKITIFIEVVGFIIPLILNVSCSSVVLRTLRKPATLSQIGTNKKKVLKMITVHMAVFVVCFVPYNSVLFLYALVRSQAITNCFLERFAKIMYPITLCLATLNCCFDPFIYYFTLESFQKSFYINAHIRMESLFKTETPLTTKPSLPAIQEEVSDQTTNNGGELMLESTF
Excerpt: as §1

B1: gintonin: ginseng-derived glycolipoprotein; structural protein of ginseng major latex-like protein (MLP151) and ribonuclease-like storage proteins; crude gintonin used in tests (protein)
chain 1: MGLTGKLICQTGIKSDGDVFHELFGTRPHHVPNITPANIQGCDLHEGEFGKVGSVVIWNYSIDGNAMIAKEEIVAIDEEDKSVTFKVVEGHLFEEFKSIVFSVHVDTKGEDNLVTWSIDYEKLNESVKDPTSYLDFLLSVTRDIEAHHLPK
chain 2: RSDYPWAMFALRLQWPAGFCEVNNACDTKSLLNTFTIHGLYPYNAKGTPALYCDGTAFDVNSVSDFLAEMHLAWPSHETNTEDIQFWEHEWKKHGRCSEALLKQTDYFRTALAFRKAFDIVGLLNQEGIYPNNDLYRPKMIKEAIKKHLNAVPEIDFTKNENSEYVLTDINVCVNQQATRFVDCPTDDATDDYRLKFVRLPSKMKFADPRTNSII
gintonin activity on intracellular calcium level [1]: No gintonin activity was detected
covering of scratch wound area [2]: covered the wound area
transient increase in cytoplasmic free Ca2+ level [3]: induces a transient increase in cytoplasmic free Ca^2+ level
increase in intracellular calcium level [4]: 61.6 ± 11.8 µM
